Data reported in patent US5262522.

What was measured:
[1] = molecular target: Endogenous high affinity simian LIF receptors on COS-7 cells (simian); assay: Scatchard analysis of 125I-LIF binding to COS-7 cells transfected with pHLIFR-65 and CAV, high affinity site (curve B, site 1)
[2] = molecular target: Endogenous high affinity simian LIF receptors on COS-7 cells (simian); assay: Scatchard analysis of 125I-LIF binding to non-transfected COS-7 cells (curve E)

- Kd [1]: 0.033 nM
- Kd [2]: 0.03 nM
Substance: Recombinant human leukemia inhibitory factor (LIF) (from UniProt P15018) (ligand)
